Laboratory results from patent US20220259289A1 (Janssen / Centocor, published 2022).
Where a chain is given by its changes, count along the chain named. Blank lines part the entries; values can stand above or below the binder they belong to.

Key:
[1] = molecular target: unrelated Fc-fused recombinant protein; assay: ELISA, negative control Fc protein
human serum albumin = molecular target: T1, human serum albumin (human, UniProt P02768 25-609); assay: ELISA, negative control HSA
T1 construct: Negative control of the ELISA; also called HSA
T1 sequence (P02768 25-609 limits assumed): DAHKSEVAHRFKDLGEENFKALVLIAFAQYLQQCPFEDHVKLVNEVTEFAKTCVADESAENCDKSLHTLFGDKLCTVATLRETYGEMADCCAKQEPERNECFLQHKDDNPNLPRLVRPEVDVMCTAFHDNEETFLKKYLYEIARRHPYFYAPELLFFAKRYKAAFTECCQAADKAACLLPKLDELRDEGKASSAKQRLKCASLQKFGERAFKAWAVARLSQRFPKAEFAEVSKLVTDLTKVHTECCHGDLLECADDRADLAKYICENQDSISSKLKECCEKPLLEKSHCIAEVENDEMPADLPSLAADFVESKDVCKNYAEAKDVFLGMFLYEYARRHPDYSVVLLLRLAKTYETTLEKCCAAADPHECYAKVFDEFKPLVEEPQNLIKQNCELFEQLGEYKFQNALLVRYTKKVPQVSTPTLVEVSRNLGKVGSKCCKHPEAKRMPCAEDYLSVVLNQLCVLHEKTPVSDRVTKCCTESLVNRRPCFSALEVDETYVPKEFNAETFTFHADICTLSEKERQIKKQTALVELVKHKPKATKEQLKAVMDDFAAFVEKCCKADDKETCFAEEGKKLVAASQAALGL
Procedure: (§1) Streptavidin-coated Maxisorp plates (Nunc catalog 436110) were blocked for 1 h in Starting Block T20 (Pierce) and then coated with biotinylated CD137 (using same antigen as in panning) or negative controls (an unrelated Fc-fused recombinant protein and human serum albumin) for 1 h. Plates were rinsed with TBST and diluted lysate was applied to plates for 1 h. Following additional rinses, wells were treated with HRP-conjugated anti-Centyrin antibody (PAB25) for 1 h and then assayed with POD (Roche catalog 11582950001).

[2] = molecular target: T2, recombinant biotinylated CD137 protein (Fc-fusion protein, R&D Systems 838-4B) (human, UniProt Q07011 24-186, biotinylated, sites not stated); assay: ELISA, lysate on biotinylated CD137-Fc
T2 construct: Bought Fc fusion; also called CD137-Fc
Procedure: as §1

[3] = molecular target: unrelated Fc-fused recombinant protein (negative control); assay: ELISA, bacterial lysate on plate-bound antigen, luminescence

- ELISA Fc Control (RLU) [1]: 2560 RLU
- ELISA HSA (RLU) (human serum albumin): 560 RLU
- ELISA CD137 (RLU) [2]: 4.63e+06 RLU
B1: ISOP193BR9P1E6 (designed binder, not shown: small tags and cut ends)
chain: LPAPKNLVVSRVTEDSARLSWGAITALFDSFLIQYQESEKVGEAIVLTVPGSERSYDLTGLKPGTEYTVSIYGVKFPYYYATADSNPLSAIFTT

- ELISA Fc Control (RLU) [1]: 1120 RLU
- ELISA HSA (RLU) (human serum albumin): 240 RLU
- ELISA CD137 (RLU) [2]: 1.49e+07 RLU
B2: ISOP193ER9P1A10 (designed binder, not shown: small tags and cut ends)
chain: LPAPKNLVVSRVTEDSARLSWTAPDAAFDSFDIYYFEHPVGGEAIVLTVPGSERSYDLTGLKPGTEYLVTIYGVKGGHFSGPLSAIFTT

- ELISA Fc Control (RLU) [1]: 1440 RLU
B3: ISOP193ER9P1G5 (designed binder, not shown: small tags and cut ends)
chain: B2 chain with H78Y, F79L, G81M

- ELISA Fc Control (RLU) [1]: 1680 RLU
- ELISA HSA (RLU) (human serum albumin): 400 RLU
- ELISA CD137 (RLU) [2]: 1.1e+07 RLU
B4: ISOP193ER9P1D7 (designed binder, not shown: small tags and cut ends)
chain: B2 chain with F36G, P39W, V40K, G41L, H78M, F79S, G81N

- ELISA Fc Control (RLU) [1]: 1840 RLU
- ELISA HSA (RLU) (human serum albumin): 400 RLU
- ELISA CD137 (RLU) [2]: 1.5e+07 RLU
B5: ISOP193ER9P1F9 (designed binder, not shown: small tags and cut ends)
chain: B2 chain with D32H, F36G, P39Y, V40N, G41L, H78F, F79W, G81T

- ELISA Fc Control (RLU) [1]: 1600 RLU
- ELISA HSA (RLU) (human serum albumin): 320 RLU
- ELISA CD137 (RLU) [2]: 1.61e+07 RLU
B6: ISOP193ER9P1B4 (designed binder, not shown: small tags and cut ends)
chain: B2 chain with R11H, H78Y, F79L, G81M

- ELISA Fc Control (RLU) [1]: 56900 RLU
- ELISA HSA (RLU) (human serum albumin): 9600 RLU
- ELISA CD137 (RLU) [2]: 4.99e+06 RLU
B7: ISOP193BR9P1G11 (designed binder, not shown: small tags and cut ends)
chain: LPAPKNLVVSRVTEDSARLSWAGHYRKIRNFDSFLIQYQESEKVGEAIVLTVPGSERSYDLTGLKPGTEYTVSIYGVKFPYYYATADSNPLSAIFTT

- ELISA Fc Control (RLU) [1]: 15900 RLU
- ELISA HSA (RLU) (human serum albumin): 2160 RLU
- ELISA CD137 (RLU) [2]: 6.15e+06 RLU
B8: ISOP193BR9P1G2 (designed binder, not shown: small tags and cut ends)
chain: B7 chain with K78A, F79E, P80H, Y81W, A86Q

- ELISA Fc Control (RLU) [1]: 1120 RLU
- ELISA HSA (RLU) (human serum albumin): 720 RLU
- ELISA CD137 (RLU) [2]: 4.02e+06 RLU
B9: ISOP193AR9P1G5 (designed binder, not shown: small tags and cut ends)
chain: LPAPKNLVVSRVTEDSARLSWRISDRLPLFDSFLIQYQESEKVGEAIVLTVPGSERSYDLTGLKPGTEYTVSIYGVGRHYTVYDSNPLSAIFTT

- ELISA Fc Control (RLU) [1]: 1440 RLU
- ELISA HSA (RLU) (human serum albumin): 320 RLU
- ELISA CD137 (RLU) [2]: 8.66e+06 RLU
B10: ISOP193AR9P1A11 (designed binder, not shown: small tags and cut ends)
chain: LPAPKNLVVSRVTEDSARLSWALSSVHAYFDSFLIQYQESEKVGEAIVLTVPGSERSYDLTGLKPGTEYTVSIYGVQYVDGFFKSNPLSAIFTT

- ELISA Fc Control (RLU) [1]: 1520 RLU
- ELISA HSA (RLU) (human serum albumin): 720 RLU
- ELISA CD137 (RLU) [2]: 3.84e+06 RLU
B11: ISOP193AR9P1F4 (designed binder, not shown: small tags and cut ends)
chain: LPAPKNLVVSRVTEDSARLSWLEQEQFVNHFDSFLIQYQESEKVGEAIVLTVPGSERSYDLTGLKPGTEYTVSIYGVQYVDGFFKSNPLSAIFTT

- ELISA Fc Control (RLU) [1]: 2640 RLU
- ELISA HSA (RLU) (human serum albumin): 960 RLU
- ELISA CD137 (RLU) [2]: 8.09e+06 RLU
B12: ISOP193BR9P1G6 (designed binder, not shown: small tags and cut ends)
chain: LPAPKNLVVSRVTEDSARLSWDDQFEDWFDSFLIQYQESEQVGEAIVLTVPGSERSYDLTGLKPGTEYTVSIYGVHTRDWTAWNASNPLSAIFTT

- ELISA Fc Control (RLU) [1]: 1200 RLU
- ELISA HSA (RLU) (human serum albumin): 720 RLU
- ELISA CD137 (RLU) [2]: 3.73e+06 RLU
B13: ISOP193BR9P1G9 (designed binder, not shown: small tags and cut ends)
chain: LPAPKNLVVSRVTEDSARLSWKQVTVAPEFDSFLIQYQESEKVGEAIVLTVPGSERSYDLTGLKPGTEYTVSIYGVKFPYYYATADSNPLSAIFTT

- ELISA Fc Control (RLU) [1]: 1360 RLU
- ELISA HSA (RLU) (human serum albumin): 640 RLU
- ELISA CD137 (RLU) [2]: 4.71e+06 RLU
B14: ISOP193BR9P1G3 (designed binder, not shown: small tags and cut ends)
chain: LPAPKNLVVSRVTEDSARLSWAQSNQQFDSFLIQYQESEKVGEAIVLTVPGSERSYDLTGLKPGTEYTVSIYGVVWQNWVAYNSNPLSAIFTT

- ELISA Fc Control (RLU) [1]: 2080 RLU
- ELISA HSA (RLU) (human serum albumin): 1360 RLU
- ELISA CD137 (RLU) [2]: 5.26e+06 RLU
B15: ISOP193BR9P1H3 (designed binder, not shown: small tags and cut ends)
chain: LPAPKNLVVSRVTEDSARLSWNRLDSEWVAFDSFLIQYQESEKVGEAIVLTVPGSERSYDLTGLKPGTEYTVSIYGVVFRPWLAYNSNPLSAIFTT

- ELISA Fc Control (RLU) [1]: 960 RLU
- ELISA HSA (RLU) (human serum albumin): 480 RLU
- ELISA CD137 (RLU) [2]: 6.74e+06 RLU
B16: ISOP193AR9P1A6 (designed binder, not shown: small tags and cut ends)
chain: LPAPKNLVVSRVTEDSARLSWKFGEVAFDSFLIQYQESEKVGEAIVLTVPGSERSYDLTGLKPGTEYTVSIYGVGRHYTVYDSNPLSAIFTT

- ELISA Fc Control (RLU) [1]: 1200 RLU
- ELISA HSA (RLU) (human serum albumin): 720 RLU
- ELISA CD137 (RLU) [2]: 4.18e+06 RLU
B17: ISOP193AR9P1E6 (designed binder, not shown: small tags and cut ends)
chain: B16 chain with G24H, E25S, V26P, A27T, F90V

- ELISA Fc Control (RLU) [1]: 3520 RLU
- ELISA HSA (RLU) (human serum albumin): 960 RLU
- ELISA CD137 (RLU) [2]: 7.14e+06 RLU
B18: ISOP193AR9P1C10 (designed binder, not shown: small tags and cut ends)
chain: B16 chain with K22P, F23N, G24H, E25I, V26S, A27I, H77F, Y81F

- ELISA Fc Control (RLU) [1]: 2240 RLU
- ELISA HSA (RLU) (human serum albumin): 1440 RLU
- ELISA CD137 (RLU) [2]: 2.76e+06 RLU
B19: ISOP193AR9P1B12 (designed binder, not shown: small tags and cut ends)
chain: LPAPKNLVVSRVTEDSARLSWTNEQITKYGFDSFLIQYQESEKVGEAIVLTVPGSERSYDLTGLKPGTEYTVSIYGVGAPYTVYDSNPLSAIFTT

- ELISA Fc Control (RLU) [1]: 3040 RLU
- ELISA HSA (RLU) (human serum albumin): 1040 RLU
- ELISA CD137 (RLU) [2]: 3.72e+06 RLU
B20: ISOP193AR9P1H8 (designed binder, not shown: small tags and cut ends)
chain: B19 chain with A79R, P80F, Y84F

- ELISA Fc Control (RLU) [3]: 400 RLU
B21: ISOP120FR5P1D7 (designed binder, not shown: small tags and cut ends)
chain: LPAPKNLVVSRVTEDSARLSWTAPDAAFDSFIIRYLEDISYGEAIVLTVPGSERSYDLTGLKPGTEYHVGIEGVKGGNVSWPLSAIFTT

- ELISA Fc Control (RLU) [3]: 240 RLU
B22: ISOP120FR5P1F8 (designed binder, not shown: small tags and cut ends)
chain: B21 chain

- ELISA Fc Control (RLU) [1]: 14000 RLU
- ELISA HSA (RLU) (human serum albumin): 2880 RLU
- ELISA CD137 (RLU) [2]: 6.55e+06 RLU
B23: ISOP193BR9P1B12 (designed binder, not shown: small tags and cut ends)
chain: LPAPKNLVVSRVTEDSARLSWPDESRPVRFDSFLIQYQESEKVGEAIVLTVPGSERSYDLTGLKPGTEYTVSIYGVLRPWIYATNDSNPLSAIFTT

- ELISA Fc Control (RLU) [1]: 8320 RLU
- ELISA HSA (RLU) (human serum albumin): 2880 RLU
- ELISA CD137 (RLU) [2]: 8.86e+06 RLU
B24: ISOP193BR9P1H6 (designed binder, not shown: small tags and cut ends)
chain: B23 chain with L77V, R78G, P79Q, I81K, N85A

- ELISA Fc Control (RLU) [1]: 11800 RLU
- ELISA HSA (RLU) (human serum albumin): 3280 RLU
- ELISA CD137 (RLU) [2]: 3.5e+06 RLU
B25: ISOP193BR9P1H2 (designed binder, not shown: small tags and cut ends)
chain: B23 chain with L77H, R78T, P79R, W80D, I81W, Y82T, T84W, D86A

- ELISA Fc Control (RLU) [1]: 1440 RLU
- ELISA HSA (RLU) (human serum albumin): 720 RLU
- ELISA CD137 (RLU) [2]: 4.26e+06 RLU
B26: ISOP193AR9P1G8 (designed binder, not shown: small tags and cut ends)
chain: LPAPKNLVVSRVTEDSARLSWHATFGDPFDSFLIQYQESEKVGEAIVLTVPGSERSYDLTGLKPGTEYTVSIYGVGRHYTVYDSNPLSAIFTT
